One data set relates to CC=O. The data set can be described thus: purified protein. As to conditions: 10 mM NAD+ (saturating), 100 mM potassium phosphate pH 7.5, 25 °C, free enzyme.
For data set [1], the system named is NC(=O)c1ccc[n+]([C@@H]2O[C@H](COP(=O)(O)OP(=O)(O)OC[C@H]3O[C@@H](n4cnc5c(N)ncnc54)[C@H](O)[C@@H]3O)[C@@H](O)[C@H]2O)c1. The data set can be described thus: purified protein. As to conditions: 10 mM acetaldehyde (saturating), 100 mM potassium phosphate pH 7.5, 25 °C, free enzyme, varied: cofactor.

A word on the Km: it is the concentration of substrate that gives half-maximal velocity. Usually Vmax stands for the top rate of the reaction or transport when substrate is in excess. Broadly, the kcat is the number of substrate molecules converted per active site and unit of time at saturation. A word on the kcat/Km: it is the second-order rate constant that governs catalysis at low substrate concentration. Turning to S2-ALDH (Flavobacterium sp. PL002), in the data set with CC=O, the Michaelis-Menten constant (Km) was 1880 ± 700 µM, the maximum rate (Vmax) is 2.64 µmol/min/mg, the turnover number (kcat) is 0.432 ± 0.025 s⁻¹ and the kcat/Km was determined as 230 ± 85.2 M⁻¹ s⁻¹. Further, in data set [1], the Km was found to be 2870 ± 480 µM, the maximum rate (Vmax) amounted to 0.74 µmol/min/mg, the kcat came to 0.121 ± 0.026 s⁻¹ and the kcat/Km came to 42.2 ± 7.05 M⁻¹ s⁻¹.

The record behind these values is PMC9569350, “Antarctic aldehyde dehydrogenase from Flavobacterium PL002 as a potent catalyst for acetaldehyde determination in wine” (Scientific Reports, 2022).
